Test results reported in article PMC4990422, “Coupling between the DEAD-box RNA helicases Ded1p and eIF4A” (eLife, 2016).

Key:
[1] = target: T1, eIF4A (S. cerevisiae) (UniProt P10081); test: global fit of RNA unwinding time courses to a thermodynamic model; K1/2 of a binding step calculated with the model of Figure 4A; step without RNA, ATP bound to Ded1p
T1 sequence: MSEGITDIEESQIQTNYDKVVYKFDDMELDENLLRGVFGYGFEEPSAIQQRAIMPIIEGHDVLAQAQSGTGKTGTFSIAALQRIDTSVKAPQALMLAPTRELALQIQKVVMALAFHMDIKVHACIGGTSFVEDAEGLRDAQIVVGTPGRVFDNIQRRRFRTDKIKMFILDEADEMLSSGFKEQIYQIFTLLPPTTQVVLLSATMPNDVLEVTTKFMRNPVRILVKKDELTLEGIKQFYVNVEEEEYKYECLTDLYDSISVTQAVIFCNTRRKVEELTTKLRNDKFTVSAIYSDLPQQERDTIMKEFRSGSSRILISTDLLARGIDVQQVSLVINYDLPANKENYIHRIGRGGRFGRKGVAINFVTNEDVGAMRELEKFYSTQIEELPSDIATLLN

[2] = target: T1, eIF4A (S. cerevisiae); test: global fit of RNA unwinding time courses to a thermodynamic model; K1/2 of a binding step calculated with the model of Figure 4A; step without RNA, ATP bound to eIF4A
[3] = target: T1, eIF4A (S. cerevisiae); test: global fit of RNA unwinding time courses to a thermodynamic model; K1/2 of a binding step calculated with the model of Figure 4A; RNA bound to the target before the step, no ATP
[4] = target: T1, eIF4A (S. cerevisiae); test: global fit of RNA unwinding time courses to a thermodynamic model; K1/2 of a binding step calculated with the model of Figure 4A; RNA bound to the binder before the step, no ATP
[5] = target: T1, eIF4A (S. cerevisiae); test: global fit of RNA unwinding time courses to a thermodynamic model; K1/2 of a binding step calculated with the model of Figure 4A; step without RNA, ATP bound to Ded1p and to eIF4A
[6] = target: T1, eIF4A (S. cerevisiae); test: global fit of RNA unwinding time courses to a thermodynamic model; K1/2 of a binding step calculated with the model of Figure 4A; RNA bound to the target before the step, ATP bound to Ded1p
[7] = target: T1, eIF4A (S. cerevisiae); test: global fit of RNA unwinding time courses to a thermodynamic model; K1/2 of a binding step calculated with the model of Figure 4A; RNA bound to the binder before the step, ATP bound to Ded1p
[8] = target: T1, eIF4A (S. cerevisiae); test: global fit of RNA unwinding time courses to a thermodynamic model; K1/2 of a binding step calculated with the model of Figure 4A; RNA bound to the target before the step, ATP bound to eIF4A
[9] = target: T1, eIF4A (S. cerevisiae); test: global fit of RNA unwinding time courses to a thermodynamic model; K1/2 of a binding step calculated with the model of Figure 4A; RNA bound to the binder before the step, ATP bound to eIF4A
[10] = target: T1, eIF4A (S. cerevisiae); test: global fit of RNA unwinding time courses to a thermodynamic model; K1/2 of a binding step calculated with the model of Figure 4A; RNA bound to the binder before the step, ATP bound to Ded1p and to eIF4A
[11] = target: T1, eIF4A (S. cerevisiae); test: global fit of RNA unwinding time courses to a thermodynamic model; K1/2 of a binding step calculated with the model of Figure 4A; RNA bound to the target before the step, ATP bound to Ded1p and to eIF4A
[12] = target: T1, eIF4A (S. cerevisiae); test: global fit of RNA unwinding time courses to a thermodynamic model; K1/2 of a binding step calculated with the model of Figure 4A (Kintek Global Explorer; 16 bp duplex, 25 nt 3' overhang); step without RNA and without ATP
[13] = target: Ded1p (wild type, N-terminal His6-tag) (S. cerevisiae) (UniProt P06634); test: cross-linking; formaldehyde 1% (v/v), 30 min, room temperature; Ded1p 0.3 µM, eIF4A 2 µM or as indicated, RNA 2 µM (16 bp, 25 nt 3'-overhang), 0.5 mM ADPNP-MgCl2, unwinding buffer; Western blot with α-Ded1p
[14] = target: eIF4G-eIF4E complex (Saccharomyces cerevisiae) (UniProt P39935); conditions: cited from earlier work
Chain of eIF4G-eIF4E complex (Saccharomyces cerevisiae) (P39935 whole entry, chain 1 of 2): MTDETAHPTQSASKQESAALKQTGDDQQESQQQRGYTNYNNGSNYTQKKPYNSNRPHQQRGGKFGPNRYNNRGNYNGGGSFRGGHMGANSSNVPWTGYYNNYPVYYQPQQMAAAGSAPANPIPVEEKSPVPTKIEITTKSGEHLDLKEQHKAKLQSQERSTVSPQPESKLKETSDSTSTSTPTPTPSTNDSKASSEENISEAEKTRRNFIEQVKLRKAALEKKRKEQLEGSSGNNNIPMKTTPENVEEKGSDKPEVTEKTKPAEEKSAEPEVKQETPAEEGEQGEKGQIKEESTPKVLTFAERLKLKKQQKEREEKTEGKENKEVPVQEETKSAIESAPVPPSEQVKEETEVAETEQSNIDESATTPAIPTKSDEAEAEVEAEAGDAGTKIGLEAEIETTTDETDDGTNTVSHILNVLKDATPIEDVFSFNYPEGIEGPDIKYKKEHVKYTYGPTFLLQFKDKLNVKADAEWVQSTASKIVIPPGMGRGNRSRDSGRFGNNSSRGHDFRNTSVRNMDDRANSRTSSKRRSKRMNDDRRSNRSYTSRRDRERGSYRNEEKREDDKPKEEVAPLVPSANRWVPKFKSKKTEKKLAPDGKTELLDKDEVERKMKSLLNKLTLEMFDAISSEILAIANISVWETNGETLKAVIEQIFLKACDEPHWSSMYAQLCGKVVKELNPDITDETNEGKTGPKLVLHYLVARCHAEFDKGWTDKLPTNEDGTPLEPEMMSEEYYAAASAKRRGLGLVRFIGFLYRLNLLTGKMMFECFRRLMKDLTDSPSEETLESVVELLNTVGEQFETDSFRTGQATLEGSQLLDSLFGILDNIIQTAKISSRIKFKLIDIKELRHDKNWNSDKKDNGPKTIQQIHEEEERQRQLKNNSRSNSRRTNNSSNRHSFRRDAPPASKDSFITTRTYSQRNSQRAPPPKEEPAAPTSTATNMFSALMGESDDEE
Chain of eIF4G-eIF4E complex (Saccharomyces cerevisiae) (P07260 whole entry, chain 2 of 2, further chain): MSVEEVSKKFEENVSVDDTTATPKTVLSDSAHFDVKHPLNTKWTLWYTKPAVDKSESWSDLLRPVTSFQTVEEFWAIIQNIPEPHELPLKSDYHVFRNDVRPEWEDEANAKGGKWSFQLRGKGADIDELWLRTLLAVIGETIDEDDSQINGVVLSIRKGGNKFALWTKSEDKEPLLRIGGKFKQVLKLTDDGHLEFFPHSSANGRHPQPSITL

[15] = target: T2, Ded1p-eIF4A-eIF4G (Saccharomyces cerevisiae, UniProt P06634); test: global fit of thermodynamic model to RNA unwinding data; format: biochemical; conditions: unwinding reactions, RNA 16 bp with 25 nt 3' overhang; fitted with energy-conservation constraints; RNA-bound complex; some ATP constants given only as limits
T2 construct: gene DED1; His6-Ded1p, His6-eIF4A, GST-S-tag-eIF4G1-His; eIF4G preparation contains eIF4E; with ATP-dependent RNA helicase eIF4A; Eukaryotic initiation factor 4F subunit p150; Eukaryotic translation initiation factor 4E
T2 sequence (P06634 2-604, one chain of several): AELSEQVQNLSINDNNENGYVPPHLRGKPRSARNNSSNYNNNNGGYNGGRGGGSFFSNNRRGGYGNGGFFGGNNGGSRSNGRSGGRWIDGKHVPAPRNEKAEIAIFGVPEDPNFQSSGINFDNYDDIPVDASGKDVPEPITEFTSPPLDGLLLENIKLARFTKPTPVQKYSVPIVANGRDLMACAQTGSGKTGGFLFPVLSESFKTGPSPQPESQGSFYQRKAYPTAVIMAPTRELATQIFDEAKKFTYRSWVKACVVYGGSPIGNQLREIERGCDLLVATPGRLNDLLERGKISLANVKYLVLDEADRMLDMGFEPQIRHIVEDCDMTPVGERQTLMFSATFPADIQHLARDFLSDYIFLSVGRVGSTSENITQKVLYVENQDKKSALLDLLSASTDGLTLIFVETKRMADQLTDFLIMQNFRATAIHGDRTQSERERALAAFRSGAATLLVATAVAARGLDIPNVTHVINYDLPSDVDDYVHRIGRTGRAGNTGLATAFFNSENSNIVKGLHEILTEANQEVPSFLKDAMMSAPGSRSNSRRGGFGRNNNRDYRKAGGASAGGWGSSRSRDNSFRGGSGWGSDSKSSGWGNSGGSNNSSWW
T2 sequence (P39935 whole entry partner, one chain of several): as the sequence (P39935 whole entry, chain 1 of 2) above

Chain of Ded1p (P06634 whole entry): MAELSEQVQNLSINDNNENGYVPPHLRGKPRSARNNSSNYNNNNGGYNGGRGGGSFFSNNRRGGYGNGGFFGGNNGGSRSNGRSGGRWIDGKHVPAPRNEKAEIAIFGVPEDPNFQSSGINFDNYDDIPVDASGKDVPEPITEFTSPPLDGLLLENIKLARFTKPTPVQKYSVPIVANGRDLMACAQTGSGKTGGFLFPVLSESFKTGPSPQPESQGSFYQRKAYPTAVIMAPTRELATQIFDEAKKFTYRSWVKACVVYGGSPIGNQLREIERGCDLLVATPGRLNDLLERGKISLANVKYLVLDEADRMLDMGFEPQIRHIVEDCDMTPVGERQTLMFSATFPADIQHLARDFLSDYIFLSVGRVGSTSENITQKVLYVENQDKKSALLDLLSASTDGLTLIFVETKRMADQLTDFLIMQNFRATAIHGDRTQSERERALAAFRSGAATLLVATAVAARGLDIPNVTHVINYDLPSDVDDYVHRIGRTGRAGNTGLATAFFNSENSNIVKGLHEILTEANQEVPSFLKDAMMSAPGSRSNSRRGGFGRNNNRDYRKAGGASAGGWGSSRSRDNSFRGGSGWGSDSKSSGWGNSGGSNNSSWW
Chain of Ded1p (wild type, N-terminal His6-tag) (P06634 whole entry): as above

Question: Which Kd [1] does the source give for “Ded1p (from UniProt P06634 1-604) (enzyme; other documents disagree on this pair)” here?
Answer: The Kd was 800 nM.

Question: What about the Kd [2] of the same compound?
Answer: The Kd was 800 nM.

Question: What about the Kd [3] of the same compound?
Answer: Its Kd is 45 nM.

Question: And the Kd [4]?
Answer: Its Kd is 270 nM.

Question: And the Kd [5]?
Answer: The Kd was 800 nM.

Question: What about the Kd [6] of the same compound?
Answer: The Kd was 89 nM.

Question: And the Kd [7]?
Answer: The Kd was 710 nM.

Question: And the Kd [8]?
Answer: Its Kd is 45 nM.

Question: And the Kd [9]?
Answer: Its Kd is 270 nM.

Question: What about the Kd [10] of the same compound?
Answer: Its Kd is 710 nM.

Question: What about the Kd [11] of the same compound?
Answer: Its Kd is 89 nM.

Question: And the Kd [12]?
Answer: The Kd was 800 nM.

Question: For “Ded1p (wild type, N-terminal His6-tag) (from UniProt P06634 1-604) (enzyme; other documents disagree on this pair)”, which stoichiometry N [13] is on record?
Answer: Its stoichiometry N is 3.

Question: Which Kd [14] does the source give for eIF4A (from UniProt P10081) here?
Answer: Its Kd is under 30 nM.

Question: With `Nc1ncnc2c1ncn2[C@@H]1O[C@H](COP(=O)(O)OP(=O)(O)OP(=O)(O)O)[C@@H](O)[C@H]1O` [ATP] as the compound, how does the K1/2 [15] read?
Answer: The K1/2 was “ATP binding to Ded1p-eIF4G-eIF4A-RNA complex”.
